{"source": "patent US20140193378A1", "about": "(UNIVERSITY OF MIAMI, published 2014)", "binders": {"B1": {"name": "P-25502 [Dat^1, D-Ala^2, Fpa5^6, Orn^12, Abu^15, Orn^21, Nle^27, Gab^30]hGHRH(1-30)NH2 (peptide)", "peptide": "[Desaminotyrosyl][dA]DAI[Phe(F5)]TNSYR[Orn]VL[Abu]QLSAR[Orn]LLQDI[Nle]SR[GABA]-NH2", "SMILES": "CCCC[C@H](NC(=O)[C@@H](NC(=O)[C@H](CC(=O)O)NC(=O)[C@H](CCC(N)=O)NC(=O)[C@H](CC(C)C)NC(=O)[C@H](CC(C)C)NC(=O)[C@H](CCCN)NC(=O)[C@H](CCCNC(=N)N)NC(=O)[C@H](C)NC(=O)[C@H](CO)NC(=O)[C@H](CC(C)C)NC(=O)[C@H](CCC(N)=O)NC(=O)[C@H](CC)NC(=O)[C@H](CC(C)C)NC(=O)[C@@H](NC(=O)[C@H](CCCN)NC(=O)[C@H](CCCNC(=N)N)NC(=O)[C@H](Cc1ccc(O)cc1)NC(=O)[C@H](CO)NC(=O)[C@H](CC(N)=O)NC(=O)[C@@H](NC(=O)[C@H](Cc1c(F)c(F)c(F)c(F)c1F)NC(=O)[C@@H](NC(=O)[C@H](C)NC(=O)[C@H](CC(=O)O)NC(=O)[C@@H](C)NC(=O)CCc1ccc(O)cc1)[C@@H](C)CC)[C@@H](C)O)C(C)C)[C@@H](C)CC)C(=O)N[C@@H](CO)C(=O)N[C@@H](CCCNC(=N)N)C(=O)NCCCC(N)=O", "notes": "also called Peptide 25502; MR-502"}}, "key": {"[1]": {"target": "T1, human GHRH receptor (human pituitary membrane homogenates) (human, UniProt Q02643 23-423)", "T1 construct": "whole, on cells; Native receptor in human pituitary membrane homogenates, not on intact cells; also called hGHRH receptor", "T1 sequence (looked up)": "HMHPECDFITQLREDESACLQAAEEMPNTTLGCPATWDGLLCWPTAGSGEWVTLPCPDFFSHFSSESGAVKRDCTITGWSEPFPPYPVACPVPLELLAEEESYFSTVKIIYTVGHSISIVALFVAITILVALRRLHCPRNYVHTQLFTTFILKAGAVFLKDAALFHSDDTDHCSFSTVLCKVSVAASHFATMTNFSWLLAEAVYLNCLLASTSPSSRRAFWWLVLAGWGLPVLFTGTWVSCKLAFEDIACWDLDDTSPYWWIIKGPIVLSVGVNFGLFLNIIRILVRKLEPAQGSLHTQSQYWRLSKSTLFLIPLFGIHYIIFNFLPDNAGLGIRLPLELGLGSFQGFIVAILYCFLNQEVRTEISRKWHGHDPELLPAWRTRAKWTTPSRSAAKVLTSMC", "assay": "radioligand competition vs 125I-JV-1-42 (0.2 nM), human pituitary membranes", "text": "(§1) Normal human pituitaries were purchased from the National Hormone and Peptide Program (A. F. Parlow, Los Angeles, County Harbor-UCLA Medical Center, Torrance, Calif.)."}, "[2]": {"target": "T1, human GHRH receptor (human pituitary …)", "assay": "radioligand competition vs 125I-JV-1-42 (0.2 nM), human pituitary membranes", "text": "as §1", "remark": "listed apart in the source"}}, "note": "Read-outs that look alike come from different tables or passages of the source. Non-standard residues stand in square brackets, D forms with d. *: point of attachment. Phe(F5) = N[C@@H](Cc1c(F)c(F)c(F)c(F)c1F)C(=O)O; Desaminotyrosyl = O=C(CCc1ccc(O)cc1)*; Nle = CCCC[C@H](N)C(=O)O; Orn = NCCC[C@H](N)C(=O)O; Abu = CC[C@H](N)C(=O)O; GABA = NCCCC(=O)O", "data": [{"binder": "B1", "values": [{"measurement": "Relative affinity (Binding potency) vs JI-38", "setting": "[1]", "result": 13.2, "unit": "fold"}, {"measurement": "Relative affinity (Binding potency) vs GHRH", "setting": "[2]", "result": 58, "unit": "fold"}, {"measurement": "Relative affinity (Binding potency) vs JI-38", "setting": "[2]", "result": 24.4, "unit": "fold"}]}]}
